Values joined by “and” are separate entries in the source; they are usually repeats but may differ in a detail not shown here. Equal values may be shown once. One block for each molecule: values may come before it.
Key:
[1] = biological target: At-His-cpSRP43, fluorescently labeled (Arabidopsis thaliana) (UniProt O22265); test: MST; labeled cpSRP43 (20 nM) or eGFP-Cg-43 (75 nM) constant, cpSRP54 constructs titrated; 300 mM NaCl, 2.7 mM KCl, 10 mM Na2HPO4, 1.8 mM K2HPO4, 5 mM MgCl2, 2 mM DTT, 0.05% Tween20, pH 7.3; Monolith NT.115, MST power 20%, LED power 20%
[2] = biological target: Cg-His-eGFP-cpSRP43 (Chaetosphaeridium globosum); test: as above
[3] = biological target: Chaetosphaeridium globosum cpSRP43(D189Y) (Chaetosphaeridium globosum); test: as above
[4] = system: Pp-cpSRP54-His (Physcomitrella patens); test: MST; details: 5 mM Mg2+, MST: 300 mM NaCl, 2.7 mM KCl, 10 mM Na2HPO4, 1.8 mM K2HPO4, 5 mM MgCl2, 2 mM DTT, 0.05% Tween20, pH 7.3, labeled Pp-cpSRP54 10-20 nM, temperature not stated …
[5] = biological target: Pp-His-cpSRP43, fluorescently labeled (Physcomitrella patens); test: MST; labeled cpSRP43 (20 nM) or eGFP-Cg-43 (75 nM) constant, cpSRP54 constructs titrated; 300 mM NaCl, 2.7 mM KCl, 10 mM Na2HPO4, 1.8 mM K2HPO4, 5 mM MgCl2, 2 mM DTT, 0.05% Tween20, pH 7.3; Monolith NT.115, MST power 20%, LED power 20%
At-His-cpSRP54 [6] = biological target: T1, At-His-cpSRP54 (Arabidopsis thaliana, UniProt P37107 76-564); test: as above; details: both partners purified
T1 construct: cpSRP54 of Arabidopsis thaliana; the results call it 'full-length' as against the M-domain; also called At-His-54; At-54; source: E. coli BL21(DE3) or Rosetta2(DE3), purified (Ni-NTA, desalted); not shown: His tag, N-terminal, kept
T1 sequence (looked up): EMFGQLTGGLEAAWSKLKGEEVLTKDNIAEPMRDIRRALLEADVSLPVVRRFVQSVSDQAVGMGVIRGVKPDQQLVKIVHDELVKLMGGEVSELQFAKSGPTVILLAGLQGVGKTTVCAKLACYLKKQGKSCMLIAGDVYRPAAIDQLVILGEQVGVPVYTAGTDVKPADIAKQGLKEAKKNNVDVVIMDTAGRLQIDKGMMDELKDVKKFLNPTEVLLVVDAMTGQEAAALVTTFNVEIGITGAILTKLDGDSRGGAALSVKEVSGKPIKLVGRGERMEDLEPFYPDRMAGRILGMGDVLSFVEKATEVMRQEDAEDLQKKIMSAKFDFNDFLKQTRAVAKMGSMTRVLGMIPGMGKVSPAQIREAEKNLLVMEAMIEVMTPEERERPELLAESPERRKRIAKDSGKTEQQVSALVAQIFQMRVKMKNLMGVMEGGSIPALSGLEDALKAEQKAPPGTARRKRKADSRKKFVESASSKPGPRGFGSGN

At-His-cpSRP54 [7] = biological target: T1, At-His-cpSRP54; test: pull-down; GST-cpSRP43 constructs on glutathione-sepharose, 20 μg of GST- and His-fusion constructs; eluates by SDS-PAGE and Coomassie staining; details: both partners purified

Kd [1]: 60 nM and 90 nM
Molecule: At-His-cpSRP54M (domain or fragment)

Kd [2]: 11000 nM
Kd [3]: 10000 nM and 11000 nM
Molecule: Cg-His-cpSRP54M (domain or fragment)

Molecule: Ec-SRP RNA
Kd ([4]; one of two replicate values): 17 nM and 27 nM

Molecule: Ot-cpSRP RNA
Kd [4]: 185 nM

Kd [5]: 9000 nM
Molecule: Pp-cpSRP54-His (natural protein)

Molecule: Pp-cpSRP RNA
Kd [4]: 1300 nM

B1: At-His-cpSRP43, fluorescently labeled (natural protein, Arabidopsis thaliana, UniProt O22265 57-373, looked up)
chain: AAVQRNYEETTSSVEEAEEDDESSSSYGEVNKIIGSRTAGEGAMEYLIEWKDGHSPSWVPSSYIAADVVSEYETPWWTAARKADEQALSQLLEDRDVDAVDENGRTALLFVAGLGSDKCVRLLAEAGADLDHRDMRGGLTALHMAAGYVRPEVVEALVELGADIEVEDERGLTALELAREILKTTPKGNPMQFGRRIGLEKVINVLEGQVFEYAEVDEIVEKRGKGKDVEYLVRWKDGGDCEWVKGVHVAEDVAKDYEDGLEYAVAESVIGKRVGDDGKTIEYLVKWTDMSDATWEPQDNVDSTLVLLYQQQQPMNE
modifications: fluorescent label on amines (Monolith NT.115 Protein Labeling Kit RED-NHS)
notes: cpSRP43 of Arabidopsis thaliana; the results speak of the 'full-length Arabidopsis thaliana cpSRP subunits'; the construct is not described among the plasmids; also called Ath-His-cpSRP43; At-43; source: E. coli BL21(DE3) or Rosetta2(DE3), purified (Ni-NTA, desalted); not shown: His tag, N-terminal, kept
Kd (At-His-cpSRP54 [6]): 50 nM and 60 nM

B2: At-GST-cpSRP43(Y269E) (natural protein, Arabidopsis thaliana, UniProt O22265 57-373, looked up)
chain: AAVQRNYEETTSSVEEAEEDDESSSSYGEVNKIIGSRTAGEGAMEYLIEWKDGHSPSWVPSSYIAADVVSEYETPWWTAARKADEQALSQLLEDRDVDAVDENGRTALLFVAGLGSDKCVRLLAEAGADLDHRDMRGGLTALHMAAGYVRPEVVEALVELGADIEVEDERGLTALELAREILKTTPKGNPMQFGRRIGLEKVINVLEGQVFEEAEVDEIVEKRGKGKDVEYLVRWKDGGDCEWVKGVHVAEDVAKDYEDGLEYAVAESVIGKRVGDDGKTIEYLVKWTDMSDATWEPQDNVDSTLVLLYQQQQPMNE
notes: cpSRP43 of Arabidopsis thaliana in pGEX4T3, with Y269E; made from the construct of m9; also called pGEX4T3-At-GST-cpSRP43(Y269E); source: E. coli BL21(DE3) or Rosetta2(DE3), purified (glutathione-sepharose); not shown: GST, N-terminal, kept
binding result (At-His-cpSRP54 [7]): binds

B3: At-GST-cpSRP43(Y269D) (natural protein, Arabidopsis thaliana, UniProt O22265 57-373, looked up)
chain: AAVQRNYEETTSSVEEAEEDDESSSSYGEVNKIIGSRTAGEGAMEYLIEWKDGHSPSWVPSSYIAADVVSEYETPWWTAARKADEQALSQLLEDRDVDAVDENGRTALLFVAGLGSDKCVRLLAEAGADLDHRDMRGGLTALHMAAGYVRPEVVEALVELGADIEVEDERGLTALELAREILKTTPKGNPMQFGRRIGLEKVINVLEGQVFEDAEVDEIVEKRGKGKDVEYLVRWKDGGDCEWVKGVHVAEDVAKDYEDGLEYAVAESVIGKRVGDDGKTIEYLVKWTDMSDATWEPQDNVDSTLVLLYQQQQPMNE
notes: cpSRP43 of Arabidopsis thaliana in pGEX4T3, with Y269D; made from the construct of m9; also called pGEX4T3-At-GST-cpSRP43(Y269D); source: E. coli BL21(DE3) or Rosetta2(DE3), purified (glutathione-sepharose); not shown: GST, N-terminal, kept
binding result (At-His-cpSRP54 [7]): binds

B4: At-GST-cpSRP43 (natural protein, Arabidopsis thaliana, UniProt O22265 57-373, looked up)
chain: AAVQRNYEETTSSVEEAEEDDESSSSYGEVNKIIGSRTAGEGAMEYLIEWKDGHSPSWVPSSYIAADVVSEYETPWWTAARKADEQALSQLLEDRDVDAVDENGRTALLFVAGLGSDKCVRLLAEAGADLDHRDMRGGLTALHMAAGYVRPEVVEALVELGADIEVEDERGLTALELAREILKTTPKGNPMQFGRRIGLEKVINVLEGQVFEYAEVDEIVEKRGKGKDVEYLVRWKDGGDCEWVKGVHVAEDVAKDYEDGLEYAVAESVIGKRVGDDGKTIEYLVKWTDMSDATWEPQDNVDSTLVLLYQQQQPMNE
notes: cpSRP43 of Arabidopsis thaliana in pGEX4T3; also called At-GST-43; GST-cpSRP43 from Arabidopsis thaliana; source: E. coli BL21(DE3) or Rosetta2(DE3), purified (glutathione-sepharose); not shown: GST, N-terminal, kept
binding result (At-His-cpSRP54 [7]): binds

From paper PMC5115805, “The Chloroplast SRP Systems of Chaetosphaeridium globosum and Physcomitrella patens as Intermediates in the Evolution of SRP-Dependent Protein Transport in Higher Plants” (PLoS ONE, 2016)
